From article PMC9371926 (Nucleic Acids Research, 2022)

T1: Methanocaldococcus jannaschii (Mja) RPP21 (Methanocaldococcus jannaschii, UniProt Q58372 1-128)
T1 sequence: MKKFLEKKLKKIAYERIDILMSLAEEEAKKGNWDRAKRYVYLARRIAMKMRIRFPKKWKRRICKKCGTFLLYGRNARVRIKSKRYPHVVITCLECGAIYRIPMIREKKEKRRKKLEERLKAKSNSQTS

T2: Methanocaldococcus jannaschii (Mja) RPP30 (Methanocaldococcus jannaschii, UniProt Q58539 1-232)
T2 sequence: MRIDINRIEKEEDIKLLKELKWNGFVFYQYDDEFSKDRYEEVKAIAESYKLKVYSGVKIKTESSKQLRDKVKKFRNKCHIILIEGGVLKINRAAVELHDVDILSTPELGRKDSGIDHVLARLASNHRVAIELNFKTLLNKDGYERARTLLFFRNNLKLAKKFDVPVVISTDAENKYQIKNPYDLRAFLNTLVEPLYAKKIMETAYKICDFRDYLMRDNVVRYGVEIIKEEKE


Columns and labels:
Assay in all cases: native MS
[1] = biological target: T1, Methanocaldococcus jannaschii (Mja) …
[2] = biological target: the molecule itself
[3] = biological target: T2, Methanocaldococcus jannaschii (Mja) …

| Binder | binding result [2] | also measured |
| --- | --- | --- |
| Methanocaldococcus jannaschii (Mja) RPP29 (natural protein) MITPHNILRHELIGLKVEIVEAKNKAMIGIKGKVVDETRNTLVIEKEDGREVVIPKDIAVFLFQLKGCKVKVDGRLLIGRPEERLKKKIKILYPY |  | binding result [1]: binds |
| Mja RPP21·RPP29 binary complex (complex, Methanocaldococcus jannaschii) chain 1: MKKFLEKKLKKIAYERIDILMSLAEEEAKKGNWDRAKRYVYLARRIAMKMRIRFPKKWKRRICKKCGTFLLYGRNARVRIKSKRYPHVVITCLECGAIYRIPMIREKKEKRRKKLEERLKAKSNSQTS chain 2: MITPHNILRHELIGLKVEIVEAKNKAMIGIKGKVVDETRNTLVIEKEDGREVVIPKDIAVFLFQLKGCKVKVDGRLLIGRPEERLKKKIKILYPY | binds |  |
| Methanocaldococcus jannaschii (Mja) POP5 (natural protein) MIEMLKTLPPTLREKKRYIAFKILYDEELKEGEVVNLIRKAVLEYYGSWGTSKANPWLVYYDFPYGILRCQRDNVDYVKASLILIREFKEKPVNIICLGVSGTIRKAKIKFLGIKKPKRWFVIRRERLKAKKQK |  | binding result [3]: binds |
| Mja POP5·RPP30 binary complex (complex, Methanocaldococcus jannaschii) chain 1: MIEMLKTLPPTLREKKRYIAFKILYDEELKEGEVVNLIRKAVLEYYGSWGTSKANPWLVYYDFPYGILRCQRDNVDYVKASLILIREFKEKPVNIICLGVSGTIRKAKIKFLGIKKPKRWFVIRRERLKAKKQK chain 2: MRIDINRIEKEEDIKLLKELKWNGFVFYQYDDEFSKDRYEEVKAIAESYKLKVYSGVKIKTESSKQLRDKVKKFRNKCHIILIEGGVLKINRAAVELHDVDILSTPELGRKDSGIDHVLARLASNHRVAIELNFKTLLNKDGYERARTLLFFRNNLKLAKKFDVPVVISTDAENKYQIKNPYDLRAFLNTLVEPLYAKKIMETAYKICDFRDYLMRDNVVRYGVEIIKEEKE | binds |  |
